This note sets out measurements from patent US20040176301A1.

Assay [1] deals with Cyclin A (UniProt P20248). Nature of the assay: competitive cyclin A binding ELISA; competitor: immobilised biotinyl-Ahx-His-Ala-Lys-Arg-Arg-Leu-Ile-Phe-NH2 (SEQ ID No. 186). Particulars: scale: relative to H-His-Ala-Lys-Arg-Arg-Leu-Ile-Phe-NH2. (In general: ELISA stands for enzyme-linked immunosorbent assay.)
Assay [2] has as its target Cyclin A (UniProt P20248). In words: competitive ELISA: cyclin A binding to immobilised biotinyl-Ahx-HAKRRLIF-NH2.
The target in assay [3] is Cyclin A (UniProt P20248). In words: competitive cyclin A binding ELISA; competitor: immobilised biotinyl-Ahx-HAKRRLIF-NH2; at 100 µM test peptide.
The target of the next assay is Cyclin D1 (UniProt P24385). Nature of the assay: competitive ELISA: cyclin D1 binding to immobilised biotinyl-Ahx-p21(149-159).
Sequence of Cyclin D1 (P24385 whole entry): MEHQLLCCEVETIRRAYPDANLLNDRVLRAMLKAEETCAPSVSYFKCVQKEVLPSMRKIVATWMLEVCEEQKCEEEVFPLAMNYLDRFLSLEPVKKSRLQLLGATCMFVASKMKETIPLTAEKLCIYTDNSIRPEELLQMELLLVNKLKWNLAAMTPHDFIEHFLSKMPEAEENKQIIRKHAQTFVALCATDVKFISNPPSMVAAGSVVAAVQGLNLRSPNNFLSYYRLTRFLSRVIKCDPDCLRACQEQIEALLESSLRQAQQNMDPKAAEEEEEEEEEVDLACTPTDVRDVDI
Assay [4] concerns the target Cyclin A (UniProt P20248). Nature of the assay: cyclin A binding assay, IC50 (immobilised ligand not given).

Square brackets hold non-standard residues; d marks the D form. Phe(3-F) = N[C@@H](Cc1cccc(F)c1)C(=O)O; Phe(4-F) = N[C@@H](Cc1ccc(F)cc1)C(=O)O; Tic = O=C(O)[C@@H]1Cc2ccccc2CN1; Cha = N[C@@H](CC1CCCCC1)C(=O)O; Phe(ol) = N[C@H](CO)Cc1ccccc1; Phg = N[C@H](C(=O)O)c1ccccc1; Nle = CCCC[C@H](N)C(=O)O; Nva = CCC[C@H](N)C(=O)O; Abu = CC[C@H](N)C(=O)O

H-H[Nva]KRRLIF-NH2 registered a Relative activity, Cyclin A Binding in the assay with Cyclin A [1] of under 0.1.
Take H-FAKRRLIF-NH2: in the assay with Cyclin A [2], the Relative activity, Cyclin A Binding (relative to HAKRRLIF-NH2) is 1.
In the case of H-HAKRRIIF-NH2, the Relative activity, Cyclin A Binding in the assay with Cyclin A [1] amounted to 0.2.
Consider H-H[Abu]KRRLIF-NH2, for which, in the assay with Cyclin A [1], the Relative activity, Cyclin A Binding turned out to be 1.3.
For “H-His-Ala-Lys-Arg-Arg-Leu-Ile-2Nap-NH2 (peptide)”, the Relative activity, Cyclin A Binding with Cyclin A [1] worked out at 0.7.
In turn, H-HAKRRL[Cha]F-NH2 came in with a Relative activity, Cyclin A Binding with Cyclin A [1] of 0.5.
On the same count and under the same terms, then H-HARRRLIF-NH2, with 1.5; and H-HAKARLIF-NH2, with under 0.1; and H-HIKRRLIF-NH2, with 0.2.
In the assay with Cyclin A [1], H-HAKRR[Nle]IF-NH2 displayed a Relative activity, Cyclin A Binding of under 0.1.
H-Asn-Leu-Phe-Gly-NH2 (peptide) yielded a Maximum Inhibition (%) with Cyclin A [3] of 80%.
The substance H-HAKRRLLF-NH2 gave a Relative activity, Cyclin A Binding in the assay with Cyclin A [1] of 0.6.
As for “H-His-Ala-Lys-Arg-Arg-Leu-Ile-D-Pse-OH (peptide)”, the Relative activity, Cyclin A Binding with Cyclin A [1] was found to be 0.1.
Usually IC50 stands for the midpoint of a concentration-inhibition curve. “P27 peptide H-Ser-Ala-Abu-Arg-Asn-Leu-Phe-Gly-NH2”: the 50% inhibitory concentration (IC50) with Cyclin D1 was over 200 µM.
In the assay with Cyclin A [1], “H-His-Ser-Lys-Arg-Arg-Leu-Ile-Pheol (peptide)” came in with a Relative activity, Cyclin A Binding of under 0.1.
H-HAKRRLIL-NH2: the Relative activity, Cyclin A Binding in the assay with Cyclin A [1] was under 0.1.
On the same count and under the same terms, then H-HAKKRLIF-NH2, with 0.1.
With Ac-Arg-Arg-Leu-Asn-Phe-NH2 (peptide), the half-maximal inhibitory concentration (IC50) in the assay with Cyclin A [4] is 8.15 µM.
Turning to “H-His-Ala-Lys-Nle-Arg-Leu-Ile-Phe-NH2 (peptide)”, in the assay with Cyclin A [1], the Relative activity, Cyclin A Binding is under 0.1.
The same measure, in the same setting: in the case of H-HFKRRLIF-NH2 it was 0.2.
For P21 N-terminus peptide KAURRLFG-NH2, the half-inhibitory concentration (IC50) with Cyclin D1 is 134 µM.
Consider “H-Hse-Ala-Lys-Arg-Arg-Leu-Ile Phe-NH2 (peptide)”, for which the Relative activity, Cyclin A Binding (relative to HAKRRLIF-NH2) in the assay with Cyclin A [2] was determined as 2.
Take “H-His-Ala-Lys-Arg-Aib-Leu-Ile-Phe-NH2 (peptide)”: the Relative activity, Cyclin A Binding with Cyclin A [1] is under 0.1.
With H-HAKRPLIF-NH2, the Relative activity, Cyclin A Binding with Cyclin A [1] is under 0.1.
On the same count and under the same terms, in the case of H-HGKRRLIF-NH2 it was 0.1.
“H-Thi-Ala-Lys-Arg-Arg-Leu-Ile Phe-NH2 (peptide)” showed a Relative activity, Cyclin A Binding (relative to HAKRRLIF-NH2) with Cyclin A [2] of 0.2.
H-HALRRLIF-NH2 yielded a Relative activity, Cyclin A Binding with Cyclin A [1] of 1.4.
“H-His-Ala-Lys-Arg-Sar-Leu-Ile-Phe-NH2 (peptide)” registered a Relative activity, Cyclin A Binding with Cyclin A [1] of under 0.1.
In the assay with Cyclin A [1], “H-His-Ala-Lys-Arg-Arg-1Nap-Ile-Phe-NH2 (peptide)” had a Relative activity, Cyclin A Binding of under 0.1.
“H-His-Ala-Lys-Arg-Arg-Leu-1Nap-Phe-NH2 (peptide)” returned a Relative activity, Cyclin A Binding in the assay with Cyclin A [1] of 0.5.
On the same count and under the same terms, in the case of H-H[Phg]KRRLIF-NH2 it was under 0.1.
Substance H-Arg-Leu-Ile-Phe-NH2 (peptide) displayed a Maximum Inhibition (%) with Cyclin A [3] of 50%.
The substance H-HAKRRLIK-NH2 gave a Relative activity, Cyclin A Binding in the assay with Cyclin A [1] of under 0.1.
“H-His-Ala-Lys-Arg-Arg-Leu-Ile-Dhp-OH (peptide)” gave a Relative activity, Cyclin A Binding in the assay with Cyclin A [1] of 0.2.
H-HAKQRLIF-NH2 yielded a Relative activity, Cyclin A Binding in the assay with Cyclin A [1] of under 0.1.
In the assay with Cyclin A [1], “H-His-Ser-Lys-Arg-Arg-Leu-Ile-L-Pse-OH (peptide)” registered a Relative activity, Cyclin A Binding of under 0.1.
In the assay with Cyclin A [1], “H-His-Bug-Lys-Arg-Arg-Leu-Ile-Phe-NH2 (peptide)” registered a Relative activity, Cyclin A Binding of 1.2.
H-HAKRALIF-NH2 displayed a Relative activity, Cyclin A Binding in the assay with Cyclin A [1] of under 0.1.
For the substance H-AAKRRLIF-NH2, the Relative activity, Cyclin A Binding (relative to HAKRRLIF-NH2) in the assay with Cyclin A [2] is 2.5.
Regarding “H-His-Ser-Lys-Arg-Arg-Leu-Ile-D-Pse-OH (peptide)”, in the assay with Cyclin A [1], the Relative activity, Cyclin A Binding is under 0.1.
Substance H-HAKRSLIF-NH2 gave a Relative activity, Cyclin A Binding with Cyclin A [1] of 0.2.
The substance H-HAKRRLF-NH2 returned a Relative activity, Cyclin A Binding with Cyclin A [1] of under 0.1.
H-HAKRR[Nva]IF-NH2 had a Relative activity, Cyclin A Binding in the assay with Cyclin A [1] of under 0.1.
For “H-Pya-Ala-Lys-Arg-Arg-Leu-Ile Phe-NH2 (peptide)”, the Relative activity, Cyclin A Binding (relative to HAKRRLIF-NH2) in the assay with Cyclin A [2] amounted to 0.2.
H-HAKRRLI[Phe(ol)]: the Relative activity, Cyclin A Binding in the assay with Cyclin A [1] was 1.
“H-His-Ala-Lys-Cit-Arg-Leu-Ile-Phe-NH2 (peptide)” registered a Relative activity, Cyclin A Binding in the assay with Cyclin A [1] of 0.2.
Turning to “H-His-Ala-Lys-Arg-Arg-Leu-Ile-L-Pse-OH (peptide)”, the Relative activity, Cyclin A Binding with Cyclin A [1] came to 0.2.
For H-HAKRRLI[Tic]-NH2, the Relative activity, Cyclin A Binding in the assay with Cyclin A [1] is under 0.1.
For the substance H-HAKRRL[Nva]F-NH2, the Relative activity, Cyclin A Binding with Cyclin A [1] came out at 0.6.
Same read-out and setting: in the case of H-HAARRLIF-NH2 it was 0.5; in that of H-HAKRRLI[Phe(4-F)]-NH2, 5; in that of H-HAKRRLFF-NH2, 0.4.
As for H-HAKRR[Cha]IF-NH2, the Relative activity, Cyclin A Binding in the assay with Cyclin A [1] is under 0.1.
In the assay with Cyclin A [1], H-HAKRRLIY-NH2 yielded a Relative activity, Cyclin A Binding of 0.2.
In the assay with Cyclin A [1], H-HAKRNLIF-NH2 had a Relative activity, Cyclin A Binding of under 0.1.
In turn, H-HAKRRVIF-NH2 registered a Relative activity, Cyclin A Binding with Cyclin A [1] of under 0.1.
Regarding “H-His-Ala-Lys-Arg-Arg-Leu-Ile-1Nap-NH2 (peptide)”, in the assay with Cyclin A [1], the Relative activity, Cyclin A Binding is under 0.1.
In turn, H-HVKRRLIF-NH2 gave a Relative activity, Cyclin A Binding with Cyclin A [1] of 1.7.
As for H-HAKRRLI[Phe(3-F)]-NH2, in the assay with Cyclin A [1], the Relative activity, Cyclin A Binding stood at 0.8.
For H-HAKRRFIF-NH2, in the assay with Cyclin A [1], the Relative activity, Cyclin A Binding was under 0.1.
The substance H-HAKRRLI[Cha]-NH2 registered a Relative activity, Cyclin A Binding with Cyclin A [1] of under 0.1.
H-HA[Nle]RRLIF-NH2 yielded a Relative activity, Cyclin A Binding with Cyclin A [1] of 0.2.
In turn, H-HA[Abu]RRLIF-NH2 had a Relative activity, Cyclin A Binding in the assay with Cyclin A [1] of 0.2.
In turn, “P21 N-terminus-LIF hybrid KAURRLIF-NH2 (peptide)” displayed an IC50 with Cyclin D1 of 20 µM.
With H-HAKRRLVF-NH2, the Relative activity, Cyclin A Binding with Cyclin A [1] came out at 1.5.
Same read-out and setting: then H-HAKRRLAF-NH2, with 0.8.
On the same count and under the same terms, in the case of “H-His-Ala-Lys-Hse-Arg-Leu-Ile-Phe-NH2 (peptide)” it was under 0.1.
Take “H-Dab-Ala-Lys-Arg-Arg-Leu-Ile Phe-NH2 (peptide)”: the Relative activity, Cyclin A Binding (relative to HAKRRLIF-NH2) with Cyclin A [2] was 0.4.
Consider H-HAKRRL[Nle]F-NH2, for which the Relative activity, Cyclin A Binding with Cyclin A [1] turned out to be 0.3.
The same measure, in the same setting: in the case of “H-His-Ala-Lys-Arg-Arg-Leu-Ile-Hof-NH2 (peptide)” it was under 0.1; in that of H-HAKRRLIW-NH2, 0.1.
